B1: H2L3: humanized PIIO-1 antibody, VH SEQ ID NO: 21 and VL SEQ ID NO: 22 (antibody, V domains shown)
VH: QVQLQESGPGLVKPSQTLSLTCTVSGYSITSDYAWNWIRQFPGNKLEWMGYISYSGSTSYTPSLKSRITISRDTSKNHFFLKLSSVTAADTAVYYCAKSGGDYYGSSSYWYFDVWGQGTMVTVSS
VL: DIVLTQSPSSLAVSAGERVTMSCKSSQSLLNSRSQKNYLAWYQQKPGQPPKLLIYGASTRGSGVPDRFSGSGSGTDFTLTISSVQAEDVAVYYCQNDHSYPFTFGSGTKLEIKR
B2: H4L3: humanized PIIO-1 antibody, VH SEQ ID NO: 18 and VL SEQ ID NO: 22 (antibody, V domains shown)
VH: B1 VH with Q1D, K82Q, A89E, V93T, M120T
VL: B1 VL
B3: H3L2: humanized PIIO-1 antibody, VH SEQ ID NO: 19 and VL SEQ ID NO: 24 (antibody, V domains shown)
VH: B1 VH with Q1D, V93T, M120T
VL: B1 VL with A15L, S22N, S106Q
B4: H1L3: humanized PIIO-1 antibody, VH SEQ ID NO: 20 and VL SEQ ID NO: 22 (antibody, V domains shown)
VH: B1 VH with I68V, F80S
VL: B1 VL
B5: H4L1: humanized PIIO-1 antibody, VH SEQ ID NO: 18 and VL SEQ ID NO: 23 (antibody, V domains shown)
VH: B1 VH with Q1D, K82Q, A89E, V93T, M120T
VL: B1 VL with A15L, V19A, S22N, V84L, S106Q
B6: H3L3: humanized PIIO-1 antibody, VH SEQ ID NO: 19 and VL SEQ ID NO: 22 (antibody, V domains shown)
VH: B1 VH with Q1D, V93T, M120T
VL: B1 VL
B7: H3L1: humanized PIIO-1 antibody, VH SEQ ID NO: 19 and VL SEQ ID NO: 23 (antibody, V domains shown)
VH: B1 VH with Q1D, V93T, M120T
VL: B1 VL with A15L, V19A, S22N, V84L, S106Q
B8: H4L2: humanized PIIO-1 antibody, VH SEQ ID NO: 18 and VL SEQ ID NO: 24 (antibody, V domains shown)
VH: B1 VH with Q1D, K82Q, A89E, V93T, M120T
VL: B1 VL with A15L, S22N, S106Q
B9: H2L2: humanized PIIO-1 antibody, VH SEQ ID NO: 21 and VL SEQ ID NO: 24 (antibody, V domains shown)
VH: B1 VH
VL: B1 VL with A15L, S22N, S106Q

Where a chain is given by its changes, count along the chain named.

The subject of the first assay is Ag(−) cell. The assay can be described thus: FACS analysis with Ag(−) cell (non-specific binding). The settings on record: Heating, 5 ug/ml. As for the experimental part: Methods—FACS analysis. Cell preparation: Cell were harvested and washed with PBS+2% FBS for one time. Cell density was adjusted to 1.5E6/mL in PBS/2% FBS. Cell were added to 96 U-bottom well plates at 100 μL/well. Antibody samples preparation: Antibody in supernatant was adjusted to 10 μg/mL using PBS+2% FBS, with serial 5 times dilution performed to obtain 3 concentrations of antibody solution. The blank was PBS+2% FBS. Antibody solutions were placed into 96 U-bottom well plates at 100 μL/well in the same arranging pattern as the cell preparation. Incubation: The antibody samples (100 μl) were mixed with the cells (100 μl), and incubated at RT for 1 h, then centrifuged the plate for 3 min at 1000 rpm (swing bucket). The supernatant was pipetted and the cells were washed with PBS+2% FBS for one time. Incubation with the secondary antibody: Cy3-Conjugated AffiniPure Goat Anti-Human IgG was diluted 250× by PBS+2% FBS, and added to the 96 U-bottom well plate with 100 μl/well, then incubated at RT for 30 min. After that, the plate was centrifuged at 1000 rpm for 3 min and the supernatant was pipetted out. The cell was washed with PBS+2% FBS twice. Cells were re-suspended in 200 μl PBS+2% FBS and analyzed on FACS. The MFI of total live cells were used as binding signal.
Methods—heat treatment. Culture supernatant was serial diluted to the indicated concentration of IgG with cell media and heated at 70° C. for 5 mins on a PCR machine, then quickly cooled down to room temperature.
For orientation: A flow cytometer gives signals particle by particle.
As for B1, the “FACS with Ag(−) cell (MFI)” value is 3.35. On to B2, for which the “FACS with Ag(−) cell (MFI)” value is listed as 3.36. For the molecule B3, the “FACS with Ag(−) cell (MFI)” value is 3.26. Same read-out and setting: then B4, with 3.33; and B5, with 3.25; and B6, with 3.29.

On to B7, for which the “FACS with Ag(−) cell (MFI)” value is 3.4. On to B8, for which the “FACS with Ag(−) cell (MFI)” value is 3.29.

The assay is the same for the next values; noted with them: Non-Heating, 5 ug/ml.
For the molecule B1, the “FACS with Ag(−) cell (MFI)” value is 3.18. Same read-out and setting: then B2, with 3.27; and B3, with 3.37; and B9, with 3.24.

In the case of B4, the “FACS with Ag(−) cell (MFI)” value is on record as 3.22. Still for that read-out and setting: the result for B5 reads 3.11; that for B6, 3.16; that for B7, 3.28. Take B8: the “FACS with Ag(−) cell (MFI)” value is 3.26.
